The values that follow come from patent US20220153874A1 (NEURIMMUNE, published 2022).

The target in test [1] is T1, (GA)8 repeats.
T1 construct: also called poly-(GA)8; GA (e.g., poly(GA))
T1 peptide: GAGAGAGAGAGAGAGA
The test can be described thus: SPR, inset: Fab bound (RU) plotted against [Fab] from 0 to 20000 nM with a fitted saturation curve.

The target in test [2] is T2, BSA-coupled (GA)15 dipeptide repeat protein peptide (H-CHHHHHH(GA)15-OH conjugated via SMCC to bovine serum … (bovine, UniProt P02769 25-607, conjugated via a bifunctional linker (SMCC) to bovine serum albumin (BSA))).
T2 construct: also called BSA-coupled peptide; BSA-conjugated poly-GA
Put plainly: indirect ELISA, coated BSA-coupled peptide. How it is done:
(§1) In brief, poly-GA dipeptide repeat proteins were synthesized and purified by Schafer-N(Copenhagen, Denmark): (GA)₁₅: H-CHHHHHH(GA)₁₅-OH (SEQ ID NO: 61). Poly-GA DPR protein peptides were then conjugated via a bifunctional linker (SMCC) to bovine serum albumin (BSA). 96-well microplates (Corning Incorporated, Corning, USA) were coated with poly-GA BSA-coupled or uncoupled dipeptide repeat protein peptides at a concentration of 5 μg/ml in coating buffer (15 mM Na₂CO₃, 35 mM NaHCO₃, pH 9.42). Non-specific binding sites were blocked for 1 h at RT with PBS/0.1% Tween®-20 containing 2% BSA (Sigma-Aldrich, Buchs, Switzerland). […] Binding was determined by measurement of HRP activity in a standard colorimetric assay.
(§2) EC₅₀ values were estimated by non-linear regression using GraphPad Prism software (San Diego, USA).

The target of test [3] is T3, synthesized dipeptide repeat protein (GA)15: H-CHHHHHH(GA)15-OH.
T3 construct: also called poly-GA DPR peptide; uncoupled (GA)15 peptide
T3 peptide: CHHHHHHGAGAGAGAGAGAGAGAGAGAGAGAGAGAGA
The test can be described thus: indirect ELISA, coated uncoupled peptide. How it is done:
as §1, §2

For test [4], the target named is T3, synthesized dipeptide repeat protein …. Put plainly: indirect ELISA, coated peptide. How it is done:
In brief, dipeptide repeat proteins were synthesized and purified by Schafer-N(Copenhagen, Denmark): (GA)₁₅: H-CHHHHHH(GA)₁₅-OH (SEQ ID NO: 61); (GP)₁₅: H-C(GP)₁₅-OH (SEQ ID NO: 62); (GR)₁₅: H-C(GR)₁₅-OH (SEQ ID NO: 63); (PA)₁₅: H-C(PA)₁₅-OH (SEQ ID NO: 64); (PR)₁₅: H—C(PR)₁₅-OH (SEQ ID NO: 65). 96-well microplates (Corning Incorporated, Corning, USA) were coated with dipeptide repeat protein peptides at a concentration of either 5 μg/ml or 20 μg/ml in coating buffer (15 mM Na₂CO₃, 35 mM NaHCO₃, pH 9.42). Non-specific binding sites were blocked for 1 h at RT with PBS/0.1% Tween®-20 containing 2% BSA (Sigma-Aldrich, Buchs, Switzerland). […] Binding was determined by measurement of HRP activity in a standard colorimetric assay.
as §2

Test [5] deals with T4, synthesized dipeptide repeat protein (GA)10: H-(GA)10HHHHHH-NH2 (C-terminal amide (-NH2)).
T4 peptide: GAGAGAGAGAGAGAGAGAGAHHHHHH
Put plainly: indirect ELISA, peptide coated at 50 µg/ml. The text has this:
(§3) In brief, Dipeptide repeat protein peptides were synthesized and purified by Schafer-N(Copenhagen, Denmark): GA₂₀: H-(GA)₂₀HHHHHH-NH₂ (SEQ ID NO: 71); GA₁₀: H-(GA)₁₀HHHHHH-NH₂ (SEQ ID NO: 72); GA₆: H-(GA)₆HHHHHH-NH₂ (SEQ ID NO: 73); GA₅: H-(GA)₅HHHHHH-NH₂ (SEQ ID NO: 74); GA₄: H-(GA)₄HHHHHH-NH₂ (SEQ ID NO: 75); GA₃: H-(GA)₃HHHHHH-NH₂ (SEQ ID NO: 76); GA₂: H-(GA)₂HHHHHH-NH₂ (SEQ ID NO: 77). 96-well microplates (Corning Incorporated, Corning, USA) were coated with dipeptide repeat protein peptides at a concentration of 50 μg/ml in coating buffer (15 mM Na₂CO₃, 35 mM NaHCO₃, pH 9.42). Non-specific binding sites were blocked for 1 h at RT with PBS/0.1% Tween®-20 containing 2% BSA (Sigma-Aldrich, Buchs, Switzerland). […] Binding was determined by measurement of HRP activity in a standard colorimetric assay. EC₅₀ values were estimated by non-linear regression using GraphPad Prism software (San Diego, USA).
(§4) High affinity binding was detected for poly-GA DPRs harboring 10 (SEQ ID NO: 79) or 20 (GA)-repeats (SEQ ID NO: 82), reflected in an EC₅₀ in the subnanomolar range (Table 5, FIG. 6).

Test [6] concerns the target T5, synthesized dipeptide repeat protein (GA)20: H-(GA)20HHHHHH-NH2 (C-terminal amide (-NH2)).
T5 peptide: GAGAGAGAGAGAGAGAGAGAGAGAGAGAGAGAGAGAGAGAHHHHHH
Put plainly: indirect ELISA, peptide coated at 50 µg/ml.
From the text: as §3, §4

For test [7], the target named is T6, synthesized dipeptide repeat protein (GA)6: H-(GA)6HHHHHH-NH2.
T6 peptide: H-GAGAGAGAGAGAHHHHHH-NH2
Put plainly: indirect ELISA, peptide coated at 50 µg/ml.
From the text: as §3, §4

For test [8], the target named is T3, synthesized dipeptide repeat protein …. The test can be described thus: BLI (Octet RED96), peptide immobilised on AR2G sensor, IgG as analyte, 1:1 model. How it is done: Poly-GA dipeptide repeat protein peptides were synthesized and purified by Schafer-N (Copenhagen, Denmark): (GA)₁₅: H-CHHHHHH(GA)₁₅-OH (SEQ ID NO: 61). Pure, lyophilized (GA)₁₅ (SEQ ID NO: 66) was dissolved in DMSO (Sigma-Aldrich, Buchs, Switzerland) at a concentration of 10 mg/ml and stored at −20° C. In brief, bio-layer interferometry experiments were performed on Octet RED96 instrument (Pall ForteBio LLC, Fremont, USA). Octet amine-reactive (AR2G) biosensors were used for covalent immobilization of (GA)₁₅ (SEQ ID NO: 66) dipeptide repeat protein peptides. AR2G biosensors were activated with EDC (1-Ethyl-3-[3-dimethylaminopropyl] carbodiimide hydrochloride; 20 mM in water; Pall ForteBio LLC, Fremont, USA) and s-NHS (N-hydroxysulfosuccinimide; 10 mM in water; Pall ForteBio LLC, Fremont, USA) for 300 s, followed by loading of the biosensor surface with 5 μg/ml of (GA)₁₅ (SEQ ID NO: 66) peptides in 10 mM acetate buffer pH 6 (Pall ForteBio LLC, Fremont, USA) for 600 s. […] Antibody dissociation was evaluated in kinetics buffer for 800 s. All binding data were referenced by collecting data with a PBS only reference. Data analysis was performed by using the Octet system software (Pall ForteBio LLC, Fremont, USA) with simultaneous Kₐ/Kd global fitting with 1:1 interaction model. BLI sensorgrams were drawn with the Prism software from GraphPad (San Diego, USA) upon fitting.

The target of test [9] is T7, synthetic biotin-8xGA (also: biotin, position not given here).
T7 construct: also called synthetic 8×GA; poly-(GA)8 peptide
T7 peptide: GAGAGAGAGAGAGAGA
The test can be described thus: SPR (Biacore T200), biotin-8xGA captured on Biotin CAPture chip, Fab as analyte, 1:1 model. How it is done:
Variant Fabs were assessed for binding to synthetic poly-GA by SPR, using a Biacore T200 instrument (GE Healthcare). Synthetic biotin-8xGA was captured on a Biotin CAPture chip (GE Healthcare) at […] from solutions at 5 ng/mL in SPR buffer (10 mM HEPES, pH 7.2, 150 mM NaCl, 3.4 mM EDTA, 0.05% BSA, 0.005% surfactant P20) using reagents and protocols provided by the manufacturer. A series of solutions of variant antibody Fab fragments at increasing concentrations of 1.23, 3.7, 11, 33, and 100 nM in SPR buffer were injected over the biotin-8xGA coated sensor chip for 4 min each at 30 μL/min followed by buffer wash, and the binding response relative to a reference sensor with no biotin-8xGA was recorded during injections and for 15 min after the final injection. Data were analyzed with Biacore T200 Evaluation Software v3.0 using a 1:1 binding model.

Numbering of substitutions follows the chain as printed. Numbers in names are those of the source. Ends that are not written are not given here.

T2 sequence (P02769 25-607 limits assumed): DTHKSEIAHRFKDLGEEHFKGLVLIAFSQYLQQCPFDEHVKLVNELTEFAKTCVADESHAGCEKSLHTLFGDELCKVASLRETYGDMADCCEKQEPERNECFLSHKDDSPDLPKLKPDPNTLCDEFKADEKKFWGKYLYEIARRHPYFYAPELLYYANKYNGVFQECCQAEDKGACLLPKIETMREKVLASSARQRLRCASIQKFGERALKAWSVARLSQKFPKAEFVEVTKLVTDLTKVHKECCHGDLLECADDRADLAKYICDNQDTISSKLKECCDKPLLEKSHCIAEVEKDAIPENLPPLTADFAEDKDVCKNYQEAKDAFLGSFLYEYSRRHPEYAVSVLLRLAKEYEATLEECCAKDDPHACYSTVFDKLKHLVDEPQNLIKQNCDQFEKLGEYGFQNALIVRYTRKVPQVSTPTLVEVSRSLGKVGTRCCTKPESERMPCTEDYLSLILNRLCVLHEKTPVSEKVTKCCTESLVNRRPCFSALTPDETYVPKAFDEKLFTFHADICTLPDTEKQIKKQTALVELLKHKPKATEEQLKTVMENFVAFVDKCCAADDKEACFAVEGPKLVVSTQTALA

B1: Fab fragment of DPR Ab-1 (Fab, V domains shown)
VH: QVQLVESGGGVVQPGRSLRLSCAASGFTFSNHAMHWVRQAPGKGLEWVAVISYDGENTYYADSIEGRFTISRDNFKNTLFLQMYSLTADDTAMYFCARGGRRGHFTSYYLDYWGQGTLVTVSS
VL: DIQMTQSPSSLSASVGDRVTITCRASQNIDKYLNWYQQIPGKAPKLLIYAASSLHSGVPSRFSGSGSGTDFSLTISSLQPEDFAIYYCQQSYSSFRTFGQGTKLEIK
notes: also called DPR Ab-1 Fab
In turn, B1 registered a Kd in test [1] of 4600 nM.

B2: NI-308.5J10 recombinant human-derived monoclonal antibody (human IgG1, kappa) (antibody, V domains shown)
VH: SETLSLTYTVLGGSVSDYYWSCIRQPAGKGLEWIGRTYTNGKTTYTYNPSLESRLSLSIDTSMNQFSLKLTSVTAADTAVYYCARWGAVTGDYYYGMDVWGPGTLVTVSS
VL: EIVLTQSPLSLSVTPGEPASISCRSPRSLLHTNGYTYLDWYLQRPGQSPQLLIFLASNRASGVPDRFSGSGSGTNFTLRISGVEADDVGVYYCMQGLQPSWTFGQGTKVEIKR
notes: Full hIgG1 heavy chain (plasmid SDD151) and kappa light chain (plasmid SDD152); also called 5J10 hIgG1
B2: the EC50 in test [2] amounted to 0.16 nM; in [3], 0.23 nM; in [4], 0.26 nM; in test [5], 0.3 nM; in test [6], 0.29 nM; in test [7], 13.8 nM. Also, the Kd in test [8] stood at 0.15 nM. The molecule also gave a koff in test [8] of 2.4e-05 s⁻¹. For the same molecule, the kon in test [8] worked out at 163000 M⁻¹ s⁻¹.

B3: NI-308.5J10 variant WT-Fab-6His / N75D light chain (Fab, V domains shown)
VH: B2 VH
VL: B2 VL with N75D
notes: Plasmids SDD178 and SDD177; also called LC N75D Fab; 5J10-LC N75D Fab
In [9], B3 registered a Kd of 26 nM, a koff of 0.0059 s⁻¹ and a kon of 230000 M⁻¹ s⁻¹.

B4: NI-308.5J10 variant N54S-Fab-6His / N75D light chain (Fab, V domains shown)
VH: B2 VH with N40S
VL: B2 VL with N75D
notes: Plasmids SDD179 and SDD177; also called HC N54S/LC N75D Fab; 5J10-LC N75D, HC N54S Fab
In the case of B4, in test [9], the Kd stood at 21 nM, the koff came to 0.006 s⁻¹ and the kon was 290000 M⁻¹ s⁻¹.

B5: NI-308.5J10 variant N54T-Fab-6His / N75D light chain (Fab, V domains shown)
VH: B2 VH with N40T
VL: B2 VL with N75D
notes: Plasmids SDD180 and SDD177; also called HC N54T/LC N75D Fab; 5J10-LC N75D, HC N54T Fab
As for B5, in test [9], the Kd amounted to 30 nM, the koff was 0.0076 s⁻¹ and the kon turned out to be 260000 M⁻¹ s⁻¹.

B6: NI-308.5J10 WT Fab-6His (WT-Fab-6His / WT light chain) (Fab, V domains shown)
VH: B2 VH
VL: B2 VL
notes: The heavy chain is VH-CH1 with a C-terminal hexahistidine tag; also called 5J10 Fab
In test [9], B6 came in with a Kd of 28 nM, a koff of 0.0078 s⁻¹ and a kon of 270000 M⁻¹ s⁻¹.

B7: NI-308.5J10 variant G55T-Fab-6His / N75D light chain (Fab, V domains shown)
VH: B2 VH with G41T
VL: B2 VL with N75D
notes: Plasmids SDD182 and SDD177; also called HC G55T/LC N75D Fab; 5J10-LC N75D, HC G55T Fab
As for B7, in test [9], the Kd is 22 nM, the koff is 0.0044 s⁻¹ and the kon came out at 200000 M⁻¹ s⁻¹.

B8: NI-308.5J10 variant G55S-Fab-6His / N75D light chain (Fab, V domains shown)
VH: B2 VH with G41S
VL: B2 VL with N75D
notes: Plasmids SDD181 and SDD177; also called HC G55S/LC N75D Fab; 5J10-LC N75D, HC G55S Fab
On to B8, for which, in test [9], binding was put at a Kd of 24 nM, the koff is 0.0044 s⁻¹ and the kon is 180000 M⁻¹ s⁻¹.
